Common to all, as to assay type: cell-based, human
One assay deals with MSCs. Briefly: Cell cycle progression by flow cytometry with PI staining. The conditions noted are these: EpEX, at 18 h; from 6.5% without EpEX. How it is done:
Phospho-EGFR (Tyr845) was detected by Western blotting. […] After treatment, cell cycle progression was investigated by flow cytometry with PI staining. Fraction of cells in each phase (G1, S, G2/M) of the cell cycle was evaluated. Cells that expressed EGFR shRNA or shLuc were treated with EpEX for 18 h. After treatment, cell cycle progression was investigated by flow cytometry with PI staining. Fraction of cells in each phase (G1, S, G2/M) of the cell cycle was evaluated. […] The protein expression of cell cycle regulators (cyclin D1, cyclin D2, cyclin E1) and pluripotency factors (Oct4, Sox2, c-Myc, Lin28) was examined by Western blotting. MSCs expressing EGFR shRNA were stimulated by EpEX. After treatment, the protein expression of cell cycle regulators (cyclin D1, cyclin E1, CDK4 and CDK9) and pluripotency factors (Oct4, in Sox2, c-Myc, and Lin 28) was examined by Western blotting. […] After treatment, the gene expression of pluripotency factors (Oct4, Sox2, c-Myc, Lin28 and EpCAM) was examined by qPCR.
After treatment, the protein levels of total STAT3 and phospho-STAT3 (Tyr705) were examined by Western blotting. […] Cell cycle progression was investigated by flow cytometry with PI staining. Fraction of cells in each phase (G1, S, G2/M) of the cell cycle was evaluated. […] Fraction of cells in each phase (G1, S, G2/M) of the cell cycle was evaluated. […]

Another assay relates to Oct4, Sox2, c-Myc, Lin28. Briefly: qPCR of pluripotency factors in MSCs. The conditions noted are these: EpEX treatment. From the text: (§1) The expression of let-7 was detected by qPCR. MSCs expressing EGFR shRNA, STAT3 shRNA or Lin28b shRNA were stimulated with EpEX. The expression of let-7 was detected by qPCR. […] Expression of pluripotency factors (Oct4, Sox2, c-Myc and Lin28) was examined by qPCR. MSCs were transfected with a let-7 mimetic, and then stimulated with EpEX. Protein levels of pluripotency factors (Oct4, Sox2, c-Myc, and Lin28) were examined by Western blotting.
(§2) Total RNA was extracted using TRI reagent (Invitrogen, CA, USA), and 5 μg of total RNA was reverse transcribed using oligo (dT) primer (Fermentas, Glen Burnie, MD, USA) with SuperScript III reverse transcriptase (Invitrogen). Quantitative real time RT-PCR (qPCR) was performed on cDNA using the Light Cycler 480 SYBR Green I Master kit (Roche Applied Science, Indianapolis, IN) and the LightCycler480 System (Roche Applied Science). The gene expression levels of each sample were normalized to the expression levels of glyceraldehyde 3-phosphate dehydrogenase (GAPDH).
Background: Quantitative PCR measures a nucleic acid by following its amplification.

The subject of a further assay is STAT3 (Tyr705). Nature of the assay: STAT3 phosphorylation by Western blotting. To be noted: MSCs treated with the substance. The method, then:
After treatment, the protein levels of total STAT3 and phospho-STAT3 (Tyr705) were examined by Western blotting. […] Cell cycle progression was investigated by flow cytometry with PI staining. Fraction of cells in each phase (G1, S, G2/M) of the cell cycle was evaluated. Cells expressing STAT3 shRNA were treated with EpEX for 18 h, after which cell cycle progression was investigated by flow cytometry with PI staining. Fraction of cells in each phase (G1, S, G2/M) of the cell cycle was evaluated. […] The protein levels of cell cycle regulators (cyclin D1, cyclin D2, cyclin E1, CDK4 and CDK9) and pluripotency factors (Oct4, Sox2, c-Myc, Lin28) were examined by Western blotting. MSCs expressing STAT3 shRNA or shLuc were stimulated with EpEX. After treatment, the protein levels of cell cycle regulators (cyclin D1, cyclin D2, cyclin E1, CDK4 and CDK9) and pluripotency factors (Oct4, Sox2, c-Myc, and Lin 28) were examined by Western blotting. […] After treatment, the gene expression of pluripotency factors (Oct4, Sox2, c-Myc, Lin28 and EpCAM) was examined by qPCR.
FIG. 8. EpEX and EGF induce the phosphorylation of EGFR and STAT3. […] The phosphorylation of EGFR (Tyr845) and STAT3 (Tyr705) were examined by Western blotting with specific antibodies.
Western blotting was performed as previously described (Takahashi et al., 2003). […]

Another assay concerns let-7. Nature of the assay: let-7 expression by qPCR. The conditions noted are these: EpEX 3 μg/mL.
Description: as §1, §2

B1: EpEX: extracellular domain of human EpCAM, 265 amino acids in length (SEQ ID NO: 2) (protein, listed as Homo sapiens)
chain: MAPPQVLAFGLLLAAATATFAAAQEECVCENYKLAVNCFVNNNRQCQCTSVGAQNTVICSKLAAKCLVMKAEMNGSKLGRRAKPEGALQNNDGLYDPDCDESGLFKAKQCNGTSMCWCVNTAGVRRTDKDTEITCSERVRTYWIIIELKHKAREKPYDSKSLRTALQKEITTRYQLDPKFITSILYENNVITIDLVQNSSQKTQNDVDIADVAYYFEKDVKGESLFHSKKMDLTVNGEQLDLDPGQTLIYYVDEKAPEFSMQGLK
Consider B1, for which, in the assay with MSCs, the “percentage of cells in G2/M phase” value is on record as 29.3%. Besides, the “expression of the gene for Oct4” value in the assay with Oct4, Sox2, c-Myc, Lin28 is listed as “can induce”. The STAT3 phosphorylation entry in the assay with STAT3 (Tyr705) is “stimulates”. Besides, the “level of let-7” value in the assay on let-7 is on record as “decreased”.

The values above are taken from US20260125649A1, “MEDIUM COMPOSITION AND METHOD FOR CULTURING MESENCHYMAL STEM CELLS” (ACADEMIA SINICA, priority 2018, published 2026).
